The results in this text go back to patent publication US20170247475A1 (Boehringer Ingelheim, published 2017).

Broadly, the koff is a measure of how fast the partners let go of each other. For orientation: EC50 (read off the curve) means the concentration giving half of the maximal effect.

Experiment [1] has as its target T1, recombinant human VEGF165 (human, UniProt P15692-4 27-191).
T1 construct: also called hVEGF165; rhVEGF165
Put plainly: Biacore epitope binning, VEGF165 captured on immobilised VEGFBII23B04. Here is the method: Biacore-based epitope binning experiments are performed to investigate which VEGF binders bind to a similar or overlapping epitope as VEGFBII23B04. To this end, VEGFBII23B04 is immobilized on a CM5 sensor chip. […] Purified VHHs (100 nM) or periplasmic extracts (1/10 diluted) are then injected with a surface contact time of 240 seconds and a flow rate of 10 uL/minute. Between different samples, the surface is regenerated with regeneration buffer (100 mM HCl). Processed curves are evaluated with Biacore T100 Evaluation software.
Background: In SPR one partner is held on a chip, and binding of the other changes the refractive index at the surface.

Experiment [2] concerns the target T1, recombinant human VEGF165. Put plainly: ProteOn, periplasmic extract 1/10 on hVEGF165 chip. An excerpt:
One additional variant is constructed in which the potential oxidation site at position M30 (CDR1 region, see FIG. 19 indicated as bold italic residue) is removed by introduction of a M30I mutation.

The target in another experiment is T2, human VEGF-C (human, UniProt P49767 103-227).
T2 construct: also called hVEGF-C
T2 sequence (looked up): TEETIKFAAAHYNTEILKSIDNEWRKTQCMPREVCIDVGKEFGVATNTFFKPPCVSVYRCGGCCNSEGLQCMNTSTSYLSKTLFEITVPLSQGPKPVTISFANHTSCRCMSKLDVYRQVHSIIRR
Put plainly: binding ELISA on coated VEGFC. Here is the method: Binding to VEGFB, VEGFC, VEGFD and PIGF is assessed via a solid phase binding ELISA. In brief, VEGFB, VEGFC, VEGFD and PIGF (R&D Systems, Minneapolis, Minn., USA) are coated overnight at 4° C. at 1 μg/mL in a 96-well MaxiSorp plate (Nunc, Wiesbaden, Germany). Wells are blocked with a casein solution (1% in PBS). […] As positive controls serial dilutions of the appropriate receptors are taken along and detected with horseradish peroxidase (HRP)-conjugated goat anti-human IgG, Fc specific antibody (Jackson Immuno Research Laboratories Inc., West Grove, Pa., USA) and a subsequent enzymatic reaction in the presence of the substrate TMB (3,3′,5,5′-tetramentylbenzidine) (Pierce, Rockford, Ill., USA).
On the technique in general: ELISA stands for enzyme-linked immunosorbent assay.

T1 sequence (P15692 other isoform, or with tags, fused parts or gaps limits assumed): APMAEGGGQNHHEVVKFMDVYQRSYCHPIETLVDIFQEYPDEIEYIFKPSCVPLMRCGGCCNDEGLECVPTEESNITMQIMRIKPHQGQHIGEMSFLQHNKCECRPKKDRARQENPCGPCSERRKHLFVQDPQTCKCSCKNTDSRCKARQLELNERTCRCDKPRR

B1: VEGFBII10G05 (VHH)
VHH: EVQLVESGGGLVQAGESLRLSCVASGITFSNYNMGWFRQAPGKEREFVATIRHHGYDTYYAESVKGRFTISRDNAKNTVYLQMNSLKPEDTALYSCAKKLFWDMDPKTGFSSWGQGTQVTVSS
Regarding B1, the binding result in experiment [1] is “binds”.

B2: VEGFBII119G11 (VHH)
VHH: EVQLVESGGGLVQPGGSLRLSCAASGIRFMSMAWYRQAPGKQRELVARISSGGTTAYADSVKGRFTISRDNSKNTVYLQMNSLRAEDTAVYYCNTFSSRPNPWGQGTLVTVSS
notes: humanization variant of VEGFBII5B05; tested as periplasmic extract
Take B2: in experiment [2], the “Binding level (RU)” value was 234 RU and the koff was found to be 0.0775 s⁻¹.

B3: VEGFBII120E10 (VHH)
VHH: EVQLVESGGGLVQPGGSLRLSCVASGIRFISMAWYRQAPGKHRELVARISSGGTTAYVDSVKGRFTISRDNSKNTVYLQMNSLKAEDTAVYYCNTFSSRPNPWGAGTQVTVSS
notes: VEGFBII5B05 with the M30I mutation; tested as periplasmic extract
With B3, in experiment [2], the “Binding level (RU)” value is 257 RU and the off-rate (koff) stood at 0.0468 s⁻¹.

B4: VEGFBII10G04 (VHH)
VHH: EVQLVESGGGLVQAGGSLRLSCAASGDTLSRYAMGWFRQAPGKEREFVASINTSGKRTSYADSMKGRFAVSRDNAKNTGYLQMNSLKLEDTATYYCAADRFFGSDSNEPRAYRYWGQGTQVTVSS
On to B4, for which the binding result in experiment [1] is “binds”.

B5: VEGFBII11E04 (VHH)
VHH: EVQLVESGGGLVQAGGSLRLSCAASGRTFSSYAMGWFRQAPGKEREFVATISQSGYSTYYADSVKGRFTISRDNAKNTVNLQMNSLKPEDTAVYYCAADPFYSYGSPSPYRYWGQGTQVTVSS
With B5, the binding result in experiment [1] was “binds”.

B6: VEGFBII86H09 (VHH)
VHH: EVQLVESGGGLVQAGGSLRLSCTASGSAFKSYRMGWFRRTPGKEDEFVASISWTYGSTFYADSVKGRFTMSRDKAKNAGYLQMNSLKPEDTALYYCAAGAQSDRYNIRSYDYWGQGTQVTVSS
For B6, in experiment [1], the binding result is given as “binds”.

B7: VEGFBII10E07 (VHH)
VHH: EVQLVESGGGLVQAGGSLRLSCAASGRTFSNYAMGWFRQAPGKERVLVADISSSGINTYVADAVKGRFTISRDNAKNTVYLQMNSLKPEDTAVYYCAASAWWYSQMARDNYRYWGQGTQVTVSS
Consider B7, for which the binding result in experiment [1] is “binds”.

B8: VEGFBII11D09 (VHH)
VHH: EEQLVESGGGLVQAGGSLMLSCAASGRALSSYAIGWFRQAPGREREFVARISWSGANTYYADSVKGRFTISRGNAKNTVYLQMNSLKPEDTAAYYCAAQTTSKYDNYDARAYGYWGQGTQVTVSS
B8: the binding result in experiment [1] is recorded as “binds”.

B9: human VEGFR2-Fc chimera (Fc fusion, UniProt P35968 20-764, looked up, not shown: a dimerising Fc or GST)
chain: ASVGLPSVSLDLPRLSIQKDILTIKANTTLQITCRGQRDLDWLWPNNQSGSEQRVEVTECSDGLFCKTLTIPKVIGNDTGAYKCFYRETDLASVIYVYVQDYRSPFIASVSDQHGVVYITENKNKTVVIPCLGSISNLNVSLCARYPEKRFVPDGNRISWDSKKGFTIPSYMISYAGMVFCEAKINDESYQSIMYIVVVVGYRIYDVVLSPSHGIELSVGEKLVLNCTARTELNVGIDFNWEYPSSKHQHKKLVNRDLKTQSGSEMKKFLSTLTIDGVTRSDQGLYTCAASSGLMTKKNSTFVRVHEKPFVAFGSGMESLVEATVGERVRIPAKYLGYPPPEIKWYKNGIPLESNHTIKAGHVLTIMEVSERDTGNYTVILTNPISKEKQSHVVSLVVYVPPQIGEKSLISPVDSYQYGTTQTLTCTVYAIPPPHHIHWYWQLEEECANEPSQAVSVTNPYPCEEWRSVEDFQGGNKIEVNKNQFALIEGKNKTVSTLVIQAANVSALYKCEAVNKVGRGERVISFHVTRGPEITLQPDMQPTEQESVSLWCTADRSTFENLTWYKLGPQPLPIHVGELPTPVCKNLDTLWKLNATMFSNSTNDILIMELKNASLQDQGDYVCLAQDRKTKKRHCVVRQLTVLERVAPTITGNLENQTTSIGESIEVSCTASGNPPPQIMWFKDNETLVEDSGIVLKDGNRNLTIRRVRKEDEGLYTCQACSVLGCAKVEAFFIIEGAQEKTNLE
notes: bought (R&D Systems); also called hVEGFR2-Fc; VEGFR2-huFc
For the molecule B9, the “EC50 (read off the curve)” value with human VEGF-C was about 4 nM.

B10: VEGFBII08D09 (VHH)
VHH: EVQLVESGGGLVQAGGSLRLSCAASGRSFSDNVMGWFRQAAGKEREFVAHISRGGSRTEYAESVKGRFTISRDNTKKTMYLQMNSLKPEDTAVYYCAASRSVALATARPYDYWGQGTQVTVSS
As to B10, the binding result in experiment [1] was “binds”.

B11: VEGFBII11F12 (VHH)
VHH: EVQLVESGGGLVQSGGSLRLSCAASGRSFSSLAMGWFRQVPGKDREFVASISQSGITTSYADSVKSRFTISRDSAKNTVYLQMNLLKPEDTAVYYCATSVFYSTALTRPVDYRYWGQGTQVTVSS
For the molecule B11, in experiment [1], the binding result was “binds”.

B12: VEGFBII07D08 (VHH)
VHH: EVQLVESGGGLVQTGGSLRLSCAASGRTFSNYAMAWFRQAPGKEREFVSAINQRGSNTNYADSVKGRFTISRDSAKNSVFLQMNSLKPEDTAVYYCAASTWYGYSTYARREEYRYWGQGTQVTVSS
As for B12, in experiment [1], the binding result was “binds”.

B13: VEGFBII41C05 (VHH)
VHH: EVQLVESGGGLVQAGGSLRLSCAASGRTFSVYTMGWFRQAPGKEREFVATISRTGDRTSYANSVKGRFTISRENAKNTVYLQMNSLKPEDTAVYSCAAGPIAPSPRPREYYYWGQGTQVTVSS
On to B13, for which the binding result in experiment [1] is “binds”.

B14: VEGFBII11E05 (VHH)
VHH: EVQLVESGGGLVQPGGSLRLSCASSGRLFSFSAMGWFRQAPGKEREFVAAFKWSGSTTYYADYVKGRFTISTDNAKNILFLQMNSLKPEDTAIYYCAVDRFYTGRYYSSDEYDYWGQGTQVTVSS
B14: in experiment [1], the binding result is “binds”.

B15: VEGFBII10C07 (VHH)
VHH: EVQLVESGGGLVQAGGSLSLSCAASARAFSNYAMGWFRQVPGREREFVAVITRSPSNTYYTDSVKGRFTISRDNAKNIVYLQMNSLKPEDTAVYYCAAHYWNSDSYTYTDSRWYNYWGQGTQVTVSS
On to B15, for which, in experiment [1], the binding result is given as “binds”.

B16: VEGFBII11C08 (VHH)
VHH: EVQLVESGGGLVQAGGSLRLSCAASGRTLSSYGLGWFRQAPGKEREFVAAIGWSGSSTYYADSVKGRFTVSVDNAKNTVYLKMNSLEPEDTAVYYCAAKVRNFNSDWDLLTSYNYWGQGTQVTVSS
Regarding B16, the binding result in experiment [1] is given as “binds”.
